“And” between values parts separate entries of the source, which are not always exact repeats. Equal entries are not always repeated.
B1: RNF112: human RING type E3 ligase expressed from lentiviral vector (protein, UniProt Q9ULX5 1-631, looked up)
RING finger protein 112: MPRPALSVTSFCHRLGKRERKQSFMGNSGNSWSHTPFPKLELGLGPQPMAPRELPTCSICLERLRDPISLDCGHDFCIRCFSTHRLPGCEPPCCPECRKICKQKRGLRSLGEKMKLLPQRPLPPALQETCPVRAEPLLLVRINASGGLILRMGAINRCLKHPLARDTPVCLLAVLGEQHSGKSFLLNHLLQGLPGLESGEGGRPRGGEASLQGCRWGANGLARGIWMWSHPFLLGKEGKKVAVFLVDTGDAMSPELSRETRIKLCALTTMLSSYQILSTSQELKDTDLDYLEMFVHVAEVMGKHYGMVPIQHLDLLVRDSSHPNKAGQGHVGNIFQRLSGRYPKVQELLQGKRARCCLLPAPGRRRMNQGHASPGDTDDDFRHLLGAYVSDVLSAAPQHAKSRCQGYWNEGRAVARGDRRLLTGQQLAQEIKNLSGWMGRTGPGFTSPDEMAAQLHDLRKVEAAKREFEEYVRQQDVATKRIFSALRVLPDTMRNLLSTQKDAILARHGVALLCKGRDQTLEALEAELQATAKAFMDSYTMRFCGHLAAVGGAVGAGLMGLAGGVVGAGMAAAALAAEAGMVAAGAAVGATGAAVVGGGVGAGLAATVGCMEKEEDERLLEGDREPLLQEE
modifications: lentiviral expression
notes: human RING type E3 ligase expressed from lentiviral vector
B2: RNF13: human RING type E3 ligase expressed from lentiviral vector (protein, UniProt O43567 35-381, looked up)
E3 ubiquitin-protein ligase …: DILAYNFENASQTFDDLPARFGYRLPAEGLKGFLINSKPENACEPIVPPPVKDNSSGTFIVLIRRLDCNFDIKVLNAQRAGYKAAIVHNVDSDDLISMGSNDIEVLKKIDIPSVFIGESSANSLKDEFTYEKGGHLILVPEFSLPLEYYLIPFLIIVGICLILIVIFMITKFVQDRHRARRNRLRKDQLKKLPVHKFKKGDEYDVCAICLDEYEDGDKLRILPCSHAYHCKCVDPWLTKTKKTCPVCKQKVVPSQGDSDSDTDSSQEENEVTEHTPLLRPLASVSAQSFGALSESRSHQNMTESSDYEEDDNEDTDSSDAENEINEHDVVVQLQPNGERDYNIANTV
B3: RSPRY1: human RING type E3 ligase expressed from lentiviral vector (protein, UniProt Q96DX4 17-576, looked up)
RING finger and SPRY …: QGLLLTLEEHIAHFLGTGGAATTMGNSCICRDDSGTDDSVDTQQQQAENSAVPTADTRSQPRDPVRPPRRGRGPHEPRRKKQNVDGLVLDTLAVIRTLVDNDQEPPYSMITLHEMAETDEGWLDVVQSLIRVIPLEDPLGPAVITLLLDECPLPTKDALQKLTEILNLNGEVACQDSSHPAKHRNTSAVLGCLAEKLAGPASIGLLSPGILEYLLQCLKLQSHPTVMLFALIALEKFAQTSENKLTISESSISDRLVTLESWANDPDYLKRQVGFCAQWSLDNLFLKEGRQLTYEKVNLSSIRAMLNSNDVSEYLKISPHGLEARCDASSFESVRCTFCVDAGVWYYEVTVVTSGVMQIGWATRDSKFLNHEGYGIGDDEYSCAYDGCRQLIWYNARSKPHIHPCWKEGDTVGFLLDLNEKQMIFFLNGNQLPPEKQVFSSTVSGFFAAASFMSYQQCEFNFGAKPFKYPPSMKFSTFNDYAFLTAEEKIILPRHRRLALLKQVSIRENCCSLCCDEVADTQLKPCGHSDLCMDCALQLETCPLCRKEIVSRIRQISHIS
B4: RFFL: human RING type E3 ligase expressed from lentiviral vector (protein, UniProt Q8WZ73 1-363, looked up)
E3 ubiquitin-protein ligase …: MWATCCNWFCLDGQPEEVPPPQGARMQAYSNPGYSSFPSPTGLEPSCKSCGAHFANTARKQTCLDCKKNFCMTCSSQVGNGPRLCLLCQRFRATAFQREELMKMKVKDLRDYLSLHDISTEMCREKEELVLLVLGQQPVISQEDRTRASTLSPDFPEQQAFLTQPHSSMVPPTSPNLPSSSAQATSVPPAQVQENQQANGHVSQDQEEPVYLESVARVPAEDETQSIDSEDSFVPGRRASLSDLTDLEDIEGLTVRQLKEILARNFVNYKGCCEKWELMERVTRLYKDQKGLQHLVSGAEDQNGGAVPSGLEENLCKICMDSPIDCVLLECGHMVTCTKCGKRMNECPICRQYVIRAVHVFRS
B5: RNF103: human RING type E3 ligase expressed from lentiviral vector (protein, UniProt O00237 1-685, looked up)
E3 ubiquitin-protein ligase …: MWLKLFFLLLYFLVLFVLARFFEAIVWYETGIFATQLVDPVALSFKKLKTILECRGLGYSGLPEKKDVRELVEKSGDLMEGELYSALKEEEASESVSSTNFSGEMHFYELVEDTKDGIWLVQVIANDRSPLVGKIHWEKMVKKVSRFGIRTGTFNCSSDPRYCRRRGWVRSTLIMSVPQTSTSKGKVMLKEYSGRKIEVEHIFKWITAHAASRIKTIYNAEHLKEEWNKSDQYWLKIYLFANLDQPPAFFSALSIKFTGRVEFIFVNVENWDNKSYMTDIGIYNMPSYILRTPEGIYRYGNHTGEFISLQAMDSFLRSLQPEVNDLFVLSLVLVNLMAWMDLFITQGATIKRFVVLISTLGTYNSLLIISWLPVLGFLQLPYLDSFYEYSLKLLRYSNTTTLASWVRADWMFYSSHPALFLSTYLGHGLLIDYFEKKRRRNNNNDEVNANNLEWLSSLWDWYTSYLFHPIASFQNFPVESDWDEDPDLFLERLAFPDLWLHPLIPTDYIKNLPMWRFKCLGVQSEEEMSEGSQDTENDSESENTDTLSSEKEVFEDKQSVLHNSPGTASHCDAEACSCANKYCQTSPCERKGRSYGSYNTNEDMEPDWLTWPADMLHCTECVVCLENFENGCLLMGLPCGHVFHQNCIVMWLAGGRHCCPVCRWPSYKKKQPYAQHQPLSNDVPS
modifications: lentiviral expression
notes: as for B1
B6: RCHY1: human RING type E3 ligase expressed from lentiviral vector; listed twice (protein, UniProt Q96PM5 1-261, looked up)
RING finger and CHY zinc …: MAATAREDGASGQERGQRGCEHYDRGCLLKAPCCDKLYTCRLCHDNNEDHQLDRFKVKEVQCINCEKIQHAQQTCEECSTLFGEYYCDICHLFDKDKKQYHCENCGICRIGPKEDFFHCLKCNLCLAMNLQGRHKCIENVSRQNCPICLEDIHTSRVVAHVLPCGHLLHRTCYEEMLKEGYRCPLCMHSALDMTRYWRQLDDEVAQTPMPSEYQNMTVDILCNDCNGRSTVQFHILGMKCKICESYNTAQAGGRRISLDQQ
B7: RFPL3: human RING type E3 ligase expressed from lentiviral vector (protein, UniProt O75679 1-317, looked up)
Ret finger protein-like 3: MKRLSLVTTNRLSPQGNFLPLCTFPLAVDMAALFQEASSCPVCSDYLEKPMSLECGCTVCLKCINSLQKEPHGEDLLCCCCSMVSQRNKIRPNRQLERLVSHIKELEPKLKKILQMNPRMRKFQVDMTLDADTANNFLLISDDLRSVRSGLITQNRQDLAERFDVSVCILGSPRFTCGRHYWEVDVGTSTEWDLGVCRESVHCKGKIQLTTELGFWTVSLRDGSRLSASTVPLTFLLVDRKLQRVGIFLDMGMQNVSFFDAESGSHVYTFRSVSAEEPLRPFLAPSIPPNGDQGVLSICPLMNSGTTDAPVRPGEAK
modifications: lentiviral expression
notes: as for B1
B8: MARCH3: human RING type E3 ligase expressed from lentiviral vector (protein, UniProt Q86UD3 1-253, looked up)
E3 ubiquitin-protein ligase …: MTTSRCSHLPEVLPDCTSSAAPVVKTVEDCGSLVNGQPQYVMQVSAKDGQLLSTVVRTLATQSPFNDRPMCRICHEGSSQEDLLSPCECTGTLGTIHRSCLEHWLSSSNTSYCELCHFRFAVERKPRPLVEWLRNPGPQHEKRTLFGDMVCFLFITPLATISGWLCLRGAVDHLHFSSRLEAVGLIALTVALFTIYLFWTLVSFRYHCRLYNEWRRTNQRVILLIPKSVNVPSNQPSLLGLHSVKRNSKETVV
modifications: lentiviral expression
notes: as for B1

Each molecule was assayed on coxsackievirus B3 (CVB3-GFP). Conditions: HeLa cells, GFP-positive cells within RFP-positive gate, replicate R1.
Type: cell-based

Question: B1 was tested. Which “Percent Infected R1” value did it give?
Answer: 86.6%

Question: Which “Percent Infected R1” value does the source give for B2 here?
Answer: 97.9%

Question: How did the “Percent Infected R1” value turn out when B3 was run?
Answer: 91.4%

Question: With B4 as the molecule, how does the “Percent Infected R1” value read?
Answer: 88.2%

Question: Which “Percent Infected R1” value does the source give for B5 here?
Answer: 96.9%

Question: Which “Percent Infected R1” value does the source give for B6 here?
Answer: 97.6% and 91.2%

Question: For B7, which “Percent Infected R1” value is on record?
Answer: 78.3%

Question: Which “Percent Infected R1” value does the source give for B8 here?
Answer: 91.4%

Same assay, conditions: HeLa cells, replicate R1

Question: With B1 as the molecule, how does the “Z score R1” value read?
Answer: −0.03

Question: B2 was tested. Which “Z score R1” value did it give?
Answer: 0.12

Question: With B3 as the molecule, how does the “Z score R1” value read?
Answer: 0.04

Question: For B4, which “Z score R1” value is on record?
Answer: −0.01

Question: With B5 as the molecule, how does the “Z score R1” value read?
Answer: 0.11

Question: With B6 as the molecule, how does the “Z score R1” value read?
Answer: 0.11 and 0.03

Question: For B7, which “Z score R1” value is on record?
Answer: −0.13

Question: B8 was tested. Which “Z score R1” value did it give?
Answer: 0.04

Reference: patent US12104181B2, “Compositions and methods for treating viral infections targeting TRIM7” (THE BOARD OF REGENTS OF THE UNIVERSITY OF TEXAS SYSTEM, priority 2021, dated 2024)
